T1: carcinoembryonic antigen (CEA) (UniProt P06731 35-685, limits assumed)
T1 construct: Antigen coated on microtitre plates
T1 sequence (looked up): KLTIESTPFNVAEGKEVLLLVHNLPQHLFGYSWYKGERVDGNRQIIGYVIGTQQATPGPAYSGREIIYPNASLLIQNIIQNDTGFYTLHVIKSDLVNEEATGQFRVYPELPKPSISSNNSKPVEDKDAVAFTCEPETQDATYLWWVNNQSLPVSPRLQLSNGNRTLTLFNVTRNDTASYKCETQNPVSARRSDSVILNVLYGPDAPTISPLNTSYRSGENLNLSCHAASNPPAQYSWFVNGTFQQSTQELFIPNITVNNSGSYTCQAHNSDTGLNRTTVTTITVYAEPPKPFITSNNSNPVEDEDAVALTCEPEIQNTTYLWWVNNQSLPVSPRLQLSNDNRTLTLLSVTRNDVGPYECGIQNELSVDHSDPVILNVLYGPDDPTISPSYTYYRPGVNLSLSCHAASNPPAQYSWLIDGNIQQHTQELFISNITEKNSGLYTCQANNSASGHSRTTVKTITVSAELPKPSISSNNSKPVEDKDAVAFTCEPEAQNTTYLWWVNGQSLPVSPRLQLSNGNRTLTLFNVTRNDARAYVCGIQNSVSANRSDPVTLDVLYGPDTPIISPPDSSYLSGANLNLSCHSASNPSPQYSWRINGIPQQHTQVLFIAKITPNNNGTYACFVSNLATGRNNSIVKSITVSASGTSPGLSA

B1: 6H9 single-chain Fv (scFv)
scFv: QVQLQESGPSLVKPSQTLSLTCTVSGFSLTKYGVSWVRQAPGKALEWLGGVSSGALTAYNTALQSRLSVTRDTSKSQFSLSLSSVTTEDTAIYYCAKSVNGDSVPYGLDYWSPGLLLTVSSGGGGSGGGGSGGGGSQDVLTQPSSVSGSLGQRVSITCSGSSSNIGGNAYVGWYQQVPGSAPRLLISATTDRASGIPDRFSGSRSGNTATLTISSLQAEDEADYYCASYQSTYSGVFGSGTRLTVLGHHHHHH
notes: VH-(Gly4Ser)3-VL with C-terminal hexa-histidine tag, expressed in E. coli HB 2151; also called 6H9 SFv; sFv
B2: 6H9 whole antibody (sheep monoclonal antibody secreted by hybridoma 6H9) (antibody, V domains shown)
VH: QVQLQESGPSLVKPSQTLSLTCTVSGFSLTKYGVSWVRQAPGKALEWLGGVSSGALTAYNTALQSRLSVTRDTSKSQFSLSLSSVTTEDTAIYYCAKSVNGDSVPYGLDYWSPGLLLTVSS
VL: QDVLTQPSSVSGSLGQRVSITCSGSSSNIGGNAYVGWYQQVPGSAPRLLISATTDRASGIPDRFSGSRSGNTATLTISSLQAEDEADYYCASYQSTYSGVFGSGTRLTVLG
notes: Whole sheep monoclonal antibody
B3: mouse-derived anti-carcinoembryonic antigen whole antibody A5B7 (antibody, from another filing, V domains shown)
VH: EVKLVESGGGLVQPGGSLRLSCATSGFTFTDYYMNWVRQPPGKALEWLGFIGNKANGYTTEYSASVKGRFTISRDKSQSILYLQMNTLRAEDSATYYCTRDRGLRFYFDYWGQGTTLTVSS
VL: QTVLSQSPAILSASPGEKVTMTCRASSSVTYIHWYQQKPGSSPKSWIYATSNLASGVPARFSGSGSGTSYSLTISRVEAEDAATYYCQHWSSKPPTFGGGTKLEIK

Columns and labels:
[1] = biological target: carcinoembryonic antigen (CEA) (UniProt P06731); experiment: acid-wash EIA on CEA-coated plates, citrate pH 2.5, 1 h 37 C
[2] = biological target: T1, carcinoembryonic antigen (CEA); experiment: acid-wash EIA on CEA-coated plates, citrate pH 2.0, 1 h 37 C
Protocol: (§1) Carcinoembryonic antigen (CEA)-coated microtitre plates were prepared as described previously. Single-chain Fv samples (6H9) were diluted to a range of concentrations between 1 ng/ml and 100 ng/ml in PBS at pH 7.2 containing 1% bovine serum albumin (BSA). 100 μl samples were added to the microtitre plate wells and incubated for 1 hour at 37° C. The plates were then washed, 200 μl per well of citrate added, and the plates incubated for 1 hour at 37° C. In this case, the acid preparations were made using a stock solution of 100 mM citrate diluted to pH values of 4.0, 3.5, 3.0, 2.5 and 2.0 in the reaction mixture. PBS at pH 7.2 was used as a reference control. The plates were then washed and 100 μl per well of mouse anti-tetra-histidine antibody (Qiagen) (100 ng/ml diluted in PBS at pH 7.2 with 1% BSA) added and incubated for 1 hour at 37° C. […] The plates were then washed, treated with PNPP as described previously and the absorbance measured using a spectrophotometer at 405 nm.
(§2) As a control for acid resistance, sFv samples were incubated with PBS at pH 7.2 to generate an EIA response curve for the SFv samples. In the linear region, a concentration of 10-20 ng/ml of the SFv sample gave an absorbance (A₄₀₅) of 1.0-1.5 and was therefore used to determine the amount of antibody bound in the acid washed samples as a percentage of the amount bound in the reference sample.

[3] = biological target: T1, carcinoembryonic antigen (CEA); experiment: acid-wash EIA on CEA-coated plates, citrate pH 2.5, 1 h 37 C
Protocol: as §1, §2

[4] = biological target: T1, carcinoembryonic antigen (CEA); experiment: acid-wash EIA on CEA-coated plates, citrate pH 3.5, 1 h 37 C
Protocol: as §1, §2

[5] = biological target: T1, carcinoembryonic antigen (CEA); experiment: acid-wash EIA on CEA-coated plates, HCl pH 2, 1 h 37 C, against standard EIA
Protocol: Maxisorb assay plates (NUNC) were coated with CEA (0.4 μg/ml in phosphate-buffered saline at pH 7.2), 100 μl per well and left overnight at 4° C. The plates were then washed three times using phosphate buffered saline at pH 7.2 with 0.01% Tween 20 detergent. Any remaining reactive sites on the plates were blocked by the addition of 200 μl per well of 0.2% fat-free milk protein in PBS at pH 7.2 at 37° C. for ½ hour. The plates were then washed in PBS as described above and 45 μl of the antibody samples were added to the wells of the plates. The samples were incubated for one hour at 37° C. and then washed as described previously. Bound antibody was detected using alkaline phosphatase-conjugated donkey anti-sheep antibody (Sigma A5187 diluted 1/5000 in PBS at pH 7.2 with 1% BSA). The plates were then washed and 100 μl per well of PNPP (Sigma N2770) solution was added. Absorbance was measured using a spectrophotometer at 405 nm with phosphate buffered saline as a control.
Coating and binding of antibody samples was as described for the standard EIA above. However, after incubation with the antibody samples, the plates were washed and 200 μl per well of HCl (10 mM Stock solution) at pH 2 was added for one hour at 37° C. After three washes the antibody remaining bound to antigen was detected using alkaline phosphatase-conjugated donkey anti-sheep antibody and PNPP as described above. […]

Row | Molecule | percent antigen binding retained at pH 2.5 relative to pH 7.2 [1] | percent antigen binding retained at pH 2.0 relative to pH 7.2 [2] | percent antigen binding retained at pH 2.5 relative to pH 7.2 [3] | percent antigen binding retained at pH 3.5 relative to pH 7.2 [4] | retention of binding in acid-washed EIA (pH 2) relative to non-acid washed EIA [5]
1 | mouse-derived anti-carcinoembryonic antigen single-chain Fv MFE (scFv) | < 5% | – | – | – | –
2 | B1 | – | > 50% | > 60% | > 70% | –
3 | B2 | – | > 50% | > 60% | > 70% | > 50%
4 | B3 | < 5% | – | – | – | –

Source: patent publication US20030008355A1 (published 2003)
